# Experimental data as given in paper PMC6360533 (Neuron, 2018).
# Key:
# SEC = target: the molecule itself; assay: SEC
# native gel or EMSA = target: the molecule itself; assay: native gel or EMSA
# SEC-MALS = target: the molecule itself; assay: SEC-MALS
protein,measurement,setting,value
"human TMC1 (hsTMC1) fused to GFP (natural protein, UniProt Q8TDI8 1-760, looked up) MSPKKVQIKVEEKEDETEESSSEEEEEVEDKLPRRESLRPKRKRTRDVINEDDPEPEPEDEETRKAREKERRRRLKRGAEEEEIDEEELERLKAELDEKRQIIATVKCKPWKMEKKIEVLKEAKKFVSENEGALGKGKGKRWFAFKMMMAKKWAKFLRDFENFKAACVPWENKIKAIESQFGSSVASYFLFLRWMYGVNMVLFILTFSLIMLPEYLWGLPYGSLPRKTVPRAEEASAANFGVLYDFNGLAQYSVLFYGYYDNKRTIGWMNFRLPLSYFLVGIMCIGYSFLVVLKAMTKNIGDDGGGDDNTFNFSWKVFTSWDYLIGNPETADNKFNSITMNFKEAITEEKAAQVEENVHLIRFLRFLANFFVFLTLGGSGYLIFWAVKRSQEFAQQDPDTLGWWEKNEMNMVMSLLGMFCPTLFDLFAELEDYHPLIALKWLLGRIFALLLGNLYVFILALMDEINNKIEEEKLVKANITLWEANMIKAYNASFSENSTGPPFFVHPADVPRGPCWETMVGQEFVRLTVSDVLTTYVTILIGDFLRACFVRFCNYCWCWDLEYGYPSYTEFDISGNVLALIFNQGMIWMGSFFAPSLPGINILRLHTSMYFQCWAVMCCNVPEARVFKASRSNNFYLGMLLLILFLSTMPVLYMIVSLPPSFDCGPFSGKNRMFEVIGETLEHDFPSWMAKILRQLSNPGLVIAVILVMVLAIYYLNATAKGQKAANLDLKKKMKMQALENKMRNKKMAAARAAAAAGRQ",stoichiometry N,SEC,2
"purified human TMC1 (hsTMC1) reconstituted into amphipols (natural protein, UniProt Q8TDI8 1-760, looked up) MSPKKVQIKVEEKEDETEESSSEEEEEVEDKLPRRESLRPKRKRTRDVINEDDPEPEPEDEETRKAREKERRRRLKRGAEEEEIDEEELERLKAELDEKRQIIATVKCKPWKMEKKIEVLKEAKKFVSENEGALGKGKGKRWFAFKMMMAKKWAKFLRDFENFKAACVPWENKIKAIESQFGSSVASYFLFLRWMYGVNMVLFILTFSLIMLPEYLWGLPYGSLPRKTVPRAEEASAANFGVLYDFNGLAQYSVLFYGYYDNKRTIGWMNFRLPLSYFLVGIMCIGYSFLVVLKAMTKNIGDDGGGDDNTFNFSWKVFTSWDYLIGNPETADNKFNSITMNFKEAITEEKAAQVEENVHLIRFLRFLANFFVFLTLGGSGYLIFWAVKRSQEFAQQDPDTLGWWEKNEMNMVMSLLGMFCPTLFDLFAELEDYHPLIALKWLLGRIFALLLGNLYVFILALMDEINNKIEEEKLVKANITLWEANMIKAYNASFSENSTGPPFFVHPADVPRGPCWETMVGQEFVRLTVSDVLTTYVTILIGDFLRACFVRFCNYCWCWDLEYGYPSYTEFDISGNVLALIFNQGMIWMGSFFAPSLPGINILRLHTSMYFQCWAVMCCNVPEARVFKASRSNNFYLGMLLLILFLSTMPVLYMIVSLPPSFDCGPFSGKNRMFEVIGETLEHDFPSWMAKILRQLSNPGLVIAVILVMVLAIYYLNATAKGQKAANLDLKKKMKMQALENKMRNKKMAAARAAAAAGRQ",stoichiometry N,native gel or EMSA,2
"purified mouse TMC1 (mmTMC1) reconstituted into amphipols (natural protein, UniProt Q8R4P5 1-757, looked up) MLQIQVEEKEEDTEESSSEEEEDKLPRRESLRPKRKRTRDVINEDDPEPEPEDEETRKAREKERRRRLRRGAEEEEEIDEEELERLKALLDENRQMIATVKCKPWKMEKKIEVLKEAKKFVSENEGALGKGKGKKWFAFKMMMAKKWAKFLRDFENFKAACVPWENKIKAIESQFGSSVASYFLFLRWMYGVNMVLFVLTFSLIMLPEYLWGLPYGSLPRKTVPRAEEASAANFGVLYDFNGLAQYSVLFYGYYDNKRTIGWLNFRLPLSYFLVGIMCIGYSFLVVLKAMTKNIGDDGGGDDNTFNFSWKVFCSWDYLIGNPETADNKFNSITMNFKEAIIEERAAQVEENIHLIRFLRFLANFFVFLTLGASGYLIFWAVKRSQEFAQQDPDTLGWWEKNEMNMVMSLLGMFCPTLFDLFAELEDYHPLIALKWLLGRIFALLLGNLYVFILALMDEINNKIEEEKLVKANITLWEANMIKAYNESLSGLSGNTTGAPFFVHPADVPRGPCWETMVGQEFVRLTVSDVLTTYVTILIGDFLRACFVRFCNYCWCWDLEYGYPSYTEFDISGNVLALIFNQGMIWMGSFFAPSLPGINILRLHTSMYFQCWAVMCCNVPEARVFKASRSNNFYLGMLLLILFLSTMPVLYMIVSLPPSFDCGPFSGKNRMFEVIGETLEHDFPSWMAKILRQLSNPGLVIAVILVMVLTIYYLNATAKGQKAANLDLKKKMKQQALENKMRNKKMAAARAAAAAGGQ",stoichiometry N,SEC-MALS,2
